# From patent US20050049403A1 (CAMBRIDGE ANTIBODY TECHNOLOGY, published 2005)
# Substitutions are numbered along the chain they refer to.
# T1: human lymphotoxin (TNFβ) (human, UniProt P01374 35-205, limits assumed)
# T1 sequence (looked up): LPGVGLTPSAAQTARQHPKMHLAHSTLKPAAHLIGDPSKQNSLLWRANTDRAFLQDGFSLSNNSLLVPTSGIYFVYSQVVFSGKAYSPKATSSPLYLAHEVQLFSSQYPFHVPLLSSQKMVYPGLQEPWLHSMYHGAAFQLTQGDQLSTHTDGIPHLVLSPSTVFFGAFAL
# T2: ovalbumin (UniProt P01012 2-386)
# T2 sequence (looked up): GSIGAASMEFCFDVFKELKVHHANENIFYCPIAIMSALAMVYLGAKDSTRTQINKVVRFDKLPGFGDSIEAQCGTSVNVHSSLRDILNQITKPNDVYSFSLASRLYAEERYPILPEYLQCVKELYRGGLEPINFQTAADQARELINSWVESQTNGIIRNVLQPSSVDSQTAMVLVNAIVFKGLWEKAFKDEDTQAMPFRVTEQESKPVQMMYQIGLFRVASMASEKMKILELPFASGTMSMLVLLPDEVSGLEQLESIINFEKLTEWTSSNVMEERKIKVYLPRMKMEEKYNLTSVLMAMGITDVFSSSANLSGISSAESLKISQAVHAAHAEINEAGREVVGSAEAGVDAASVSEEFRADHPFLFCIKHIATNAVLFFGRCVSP
# T3: recombinant human TGFβ2 (human, UniProt P61812 303-414)
# T3 construct: mature; also called TGFbeta2; rhTGFβ2
# T3 sequence (looked up): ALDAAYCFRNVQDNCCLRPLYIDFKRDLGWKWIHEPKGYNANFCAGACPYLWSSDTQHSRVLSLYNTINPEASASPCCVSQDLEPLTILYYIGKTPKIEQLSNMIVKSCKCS
# T4: TGFβ2 in rat tissue sections (rat, UniProt Q07257 331-442, limits assumed)
# T4 construct: also called rat TGFβ2
# T4 sequence (looked up): T3 sequence (looked up) with S59T, R60K, K94N
# B1: 6B1 IgG4 (antibody, V domains shown)
# VH: EVQLVESGGGVVQPGRSLRLSCAASGFTFSSYGMHWVRQAPGKGLEWVAVIWYDGSNKYYADSVKGRFTISRDNSKNTLYLQMDSLRAEDTAVYYCGRTLESSLWGQGTLVTVSS
# VL: SSELTQDPAVSVALGQTVRITCQGDSLRSYYASWYQQKPGQAPVLVIYGKNNRPSGIPDRFSGSSSGNTASLTITGAQAEDEADYYCNSRDSSSTHRGVFGGGTKLTVLG
# notes: Whole antibody: human gamma 4 and human lambda constant regions; FITC-labelled in the human tissue study; also called antibody 6B1
# Columns and labels:
# bovine serum albumin = molecular target: T5, bovine serum albumin (bovine, UniProt P02769 25-607); test: ELISA, antigen coated at 10 µg/ml, anti-human Fc alkaline phosphatase conjugate, OD405 nm [a]
# T5 construct: also called BSA
# Experimental: (§1) For both FIG. 13(a) and FIG. 13(b), antigens 1 to 15 were used for coating the plate at a concentration of 10 μg/ml in PBS. The TGFbetas were coated at 0.2 μg/ml in PBS. Coating was performed at 4° C. overnight. […] of each antigen was used per well and duplicates of each antigen for each IgG to be tested. IgG samples were incubated with the coated antigens at 37° C. for 2 hours after blocking with 2%. marvel-PBS. The labelled second antibody was a mouse anti-human Fc1 alkaline phosphatase conjugated and the substrate used to detect bound second antibody was PNPP at 1 mg/ml with the absorbance read at 405 nm.
# human lymphotoxin (TNFβ) = molecular target: T1, human lymphotoxin (TNFβ); test: as above
# Experimental: as §1
# human serum albumin = human serum albumin (human, UniProt P02768 25-609); test: as above
# Experimental: as §1
# [1] = molecular target: oxazolone-bovine serum albumin (bovine, UniProt P02769 25-607, oxazolone hapten coupled, sites not stated); test: as above
# Experimental: as §1
# human insulin = human insulin (human, UniProt P01308 25-54; P01308 90-110, limits assumed); test: as above
# Experimental: as §1
# ovalbumin = molecular target: T2, ovalbumin; test: as above
# Experimental: as §1
# hen egg lysozyme = hen egg lysozyme (hen, UniProt P00698 19-147); test: as above
# Experimental: as §1
# recombinant human TGFβ2 [2] = molecular target: T3, recombinant human TGFβ2; test: BIAcore 2000, koff divided by kon
# Experimental: To determine the kinetic parameters, a series of dilutions of the antibody samples was made in HBS from about 500 μg/ml down to less than 1 μg/ml, usually through doubling dilutions. After the antibody has been injected over the antigen surface, the surface is washed with HBS, then regenerated by stripping off the bound antibody with a pulse of 100 mM HCl. At the higher concentrations of antibody the antigen on the chip surface is saturated, and the off rate is determined on washing with buffer in the dissociation phase. For determination of the on-rate, lower concentrations of antibody are used, giving a linear binding phase in the sensorgram, allowing kₒₙ determination.
# 6B1 IgG4 was purified from the GS/NS0 cell line of Example 10 as in Example 2. 6B1 single chain Fv was expressed intracellularly in E. coli, refolded in vitro (using the methodology of WO94/18227), and purified to give a homogeneous product. The values of kₒₙ and koff were determined for 6B1 IgG4 for binding to both TGFβ2 and TGFβ3, and for the single-chain Fv 6B1 for binding to TGFβ2. The dissociation constant was calculated by dividing koff by kₒₙ.
# [3] = molecular target: T4, TGFβ2 in rat tissue sections; test: immunohistochemistry, 6B1 IgG4 at 500 ng/ml on pronase E treated rat kidney sections
# Experimental: Paraffin embedded rat tissues were de-waxed and rehydrated through an alcohol series. The sections were then treated with 0.1% pronase E for exactly 8 min and then washed in water. TGFβ2 was detected in the sections using 6B1 IgG4 at 500 ng/ml following the protocol provided with a Vectastain ABC (avidin-biotin-complex) kit from Vector Laboratories. On kidney sections, bound antibody was located with alkaline phosphatase and peroxidase was used on rat brain tissues.
# recombinant human TGFβ2 [4] = molecular target: T3, recombinant human TGFβ2; test: A549 cell radioreceptor assay (nM IgG)
# Experimental: Aliqouts of ¹²⁵I-TGFβ1 or TGFβ2 (70-90 TBq/mmol; Amersham International) at 20 pM are preincubated with antibody in binding medium at room temperature for 1 h. Duplicate samples of 0.5 ml of TGFβ/antibody mixtures are then added to the cell monlayers and are incubated at 37° C. for 1-2 h. Control wells contain TGFβ only. Unbound TGFβ is removed by washing 4 times with Hank's balanced salt solution containing 0.1% BSA. Cells are solubilised in 0.8 ml 25 mM Tris HCl pH 7.5, 10% glycerol, 1% Triton X-100 at room temperature for 20 min. The contents of each well are removed and ¹²⁵I measured in a gamma counter.
# The ability of 6B1 IgG4 to inhibit binding of TGFβ isoforms to receptors was measured in a radioreceptor assay as described in example 4.
# T5 sequence (P02769 25-607 limits assumed): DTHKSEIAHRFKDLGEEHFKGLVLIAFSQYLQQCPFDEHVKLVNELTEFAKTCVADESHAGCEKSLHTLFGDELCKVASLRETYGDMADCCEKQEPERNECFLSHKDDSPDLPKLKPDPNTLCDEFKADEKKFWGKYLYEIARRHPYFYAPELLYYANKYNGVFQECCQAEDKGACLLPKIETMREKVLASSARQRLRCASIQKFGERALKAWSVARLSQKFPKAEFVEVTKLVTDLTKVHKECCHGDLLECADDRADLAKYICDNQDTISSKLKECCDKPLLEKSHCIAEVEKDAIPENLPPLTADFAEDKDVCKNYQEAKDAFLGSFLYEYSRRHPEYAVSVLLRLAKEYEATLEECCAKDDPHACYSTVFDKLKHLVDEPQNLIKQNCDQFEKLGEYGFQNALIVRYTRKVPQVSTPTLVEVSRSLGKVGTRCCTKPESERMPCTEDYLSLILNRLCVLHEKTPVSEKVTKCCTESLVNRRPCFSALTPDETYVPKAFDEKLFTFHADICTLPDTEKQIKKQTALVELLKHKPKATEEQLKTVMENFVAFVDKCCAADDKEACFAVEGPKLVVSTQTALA
# Chain of oxazolone-bovine serum albumin (P02769 25-607 limits assumed): as above
# Chain of human insulin (P01308 25-54 limits assumed, chain 1 of 2): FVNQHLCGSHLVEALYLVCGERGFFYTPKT
# Chain of human insulin (P01308 90-110 limits assumed, chain 2 of 2): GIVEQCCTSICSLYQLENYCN
# Chain of hen egg lysozyme (P00698 19-147): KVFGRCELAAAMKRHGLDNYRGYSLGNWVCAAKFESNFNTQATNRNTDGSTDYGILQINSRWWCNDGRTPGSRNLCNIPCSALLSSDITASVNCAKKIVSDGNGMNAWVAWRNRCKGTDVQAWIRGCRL
# Chain of human serum albumin (P02768 25-609 limits assumed): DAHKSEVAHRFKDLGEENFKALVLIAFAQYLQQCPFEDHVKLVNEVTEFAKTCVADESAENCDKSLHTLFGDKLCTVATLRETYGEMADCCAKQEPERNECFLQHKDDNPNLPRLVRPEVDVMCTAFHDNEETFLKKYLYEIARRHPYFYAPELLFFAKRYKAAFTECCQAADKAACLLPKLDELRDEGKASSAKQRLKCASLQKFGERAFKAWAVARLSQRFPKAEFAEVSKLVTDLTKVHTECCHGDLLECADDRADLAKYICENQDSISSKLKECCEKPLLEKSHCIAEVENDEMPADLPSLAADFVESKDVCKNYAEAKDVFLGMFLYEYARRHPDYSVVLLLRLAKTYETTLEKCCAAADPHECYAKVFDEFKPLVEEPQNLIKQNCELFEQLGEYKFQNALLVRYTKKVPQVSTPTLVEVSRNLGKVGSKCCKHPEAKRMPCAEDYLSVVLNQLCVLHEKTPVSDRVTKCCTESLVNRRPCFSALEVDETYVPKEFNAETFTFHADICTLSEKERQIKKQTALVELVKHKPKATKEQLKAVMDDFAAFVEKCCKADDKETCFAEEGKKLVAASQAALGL
binder,measurement,setting,value
B1,binding result,bovine serum albumin,no binding
same,binding result,human lymphotoxin (TNFβ),no binding
same,binding result,human serum albumin,no binding
same,binding result,[1],no binding
same,binding result,human insulin,no binding
same,binding result,ovalbumin,no binding
same,binding result,hen egg lysozyme,no binding
same,Kd,recombinant human TGFβ2 [2],0.89 nM
same,binding result,[3],binds
same,IC50,recombinant human TGFβ2 [4],0.05 nM
